The values below come from PMC4733404.

The target in this test is BDBV GP[change] (recombinant GP form that lacks the highly glycosylated mucin-like domains) (Bundibugyo virus (BDBV)). Kind of test: negative-stain single-particle electron microscopy.

With “BDBV GP[change] (recombinant GP form that lacks the highly glycosylated mucin-like domains) (domain or fragment)”, the stoichiometry N turned out to be 3.

Broadly, the stoichiometry N is a count of units in the complex or per binding partner.
